Assay results from publication PMC2561144 (Journal of Experimental Botany, 2008).

B1: His6-AtRabC2a (natural protein)
chain: MGSSSGQSGYDLSFKILLIGDSGVGKSSLLVSFISSSVEDLAPTIGVDFKIKQLTVGGKRLKLTIWDTAGQERFRTLTSSYYRGAQGIILVYDVTRRETFTNLVDVWGKEIELYSTNQECVRMLVGNKVDRESERGVSREEGIALAKELNCMFLECSARTRQNVEQCFEELALKIMEVPSLLEEGSSAVKRNILKQKPEHQTNTQSGCCS
B2: His6-AtRabD1 (natural protein)
chain: not shown

How the values were obtained:
[1] = target: T1, MYA2 tail 1, aa1049-aa1505, fused with GST (Arabidopsis thaliana, UniProt Q9LKB9 1049-1505); assay: pull-down
T1 sequence: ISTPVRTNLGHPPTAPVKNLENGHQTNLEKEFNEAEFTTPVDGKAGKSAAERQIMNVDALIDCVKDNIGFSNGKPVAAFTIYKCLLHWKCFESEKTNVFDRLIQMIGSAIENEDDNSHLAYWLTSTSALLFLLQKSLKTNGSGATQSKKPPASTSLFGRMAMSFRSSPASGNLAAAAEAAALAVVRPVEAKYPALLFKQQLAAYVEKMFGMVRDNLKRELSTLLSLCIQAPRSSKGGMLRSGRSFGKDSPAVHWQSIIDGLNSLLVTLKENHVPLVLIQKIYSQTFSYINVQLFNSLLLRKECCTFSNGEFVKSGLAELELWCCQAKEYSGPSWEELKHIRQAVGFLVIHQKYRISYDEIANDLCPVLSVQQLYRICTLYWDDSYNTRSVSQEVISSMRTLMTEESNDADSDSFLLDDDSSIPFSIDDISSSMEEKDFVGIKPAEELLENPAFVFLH

[2] = target: T2, MYA2 tail 2, aa1049-aa1450, fused with GST (Arabidopsis thaliana, UniProt Q9LKB9 1049-1450); assay: pull-down
T2 sequence: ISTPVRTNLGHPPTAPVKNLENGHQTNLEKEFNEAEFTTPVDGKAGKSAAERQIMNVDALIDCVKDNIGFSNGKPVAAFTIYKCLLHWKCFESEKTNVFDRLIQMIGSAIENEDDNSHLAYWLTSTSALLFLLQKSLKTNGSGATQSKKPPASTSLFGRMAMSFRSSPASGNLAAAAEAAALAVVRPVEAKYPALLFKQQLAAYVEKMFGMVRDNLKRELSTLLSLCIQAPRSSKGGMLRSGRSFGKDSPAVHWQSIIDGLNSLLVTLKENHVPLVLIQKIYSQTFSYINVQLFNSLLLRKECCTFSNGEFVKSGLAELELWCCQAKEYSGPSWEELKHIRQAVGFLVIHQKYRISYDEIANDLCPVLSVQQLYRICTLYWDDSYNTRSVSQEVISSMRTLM

| Binder | fold amount bound with GTP over that without GTP or on control beads [1] [fold] | fold amount bound with GTP over that without GTP or on control beads [2] [fold] |
| --- | --- | --- |
| B1 | 1.7 | – |
| B2 | 2.6 | 1.6 |
